From US12723255B2, “Herbicide tolerance genes and methods of use thereof” (priority 2014, dated 2026)
Residue numbers refer to the chain shown, from its start. Where two headings read alike, the source gives them in different places.

B1: MON-HT13: engineered oxygenase protein, amino acid sequence SEQ ID NO:47 (protein)
chain: MHAALTPLTNKYRFIDVQPLTGVLGAEITGVDLREPLDDSTWNEILDAFHTYQVIYFPGQAITNEQHIAFSRRFGPVDPVPILKSIEGYPEVQMIRREANESSRYIGDDWHADSTFLDAPPAAVVMRAIEVPEYGGDTGFLSMYSAWETLSPTMQATIEGLNVVHSATKVFGSLYQATNWRFSGTSVKVMDVDAGDRETVHPLVVTHPVTGRRALYCNQVYCQKIQGMTDAESKSLLQFLYEHATQFDFTCRVRWKKDQVLVWDNLCTMHRAVPDYAGKFRYLTRTTVAGDKPSR
B2: MON-HT17: engineered oxygenase protein, amino acid sequence SEQ ID NO:51 (protein)
chain: B1 chain with G184N
B3: MON-HT15: engineered oxygenase protein, amino acid sequence SEQ ID NO:49 (protein)
chain: B1 chain with F14H, T153A, G184N, V220I

Key:
[1] = kinetic analysis, non-endpoint assay at 23° C.; assay type: biochemical; conditions: for Vmax 2,4-D / Km / Vmax Quizalofop: Table 10 series, unit as defined
Text: For the fifth screen, recombinant protein for each of the eleven engineered proteins was produced and purified for an in-depth biochemical analysis. This biochemical analysis included: (1) kinetic analysis (Vmax and Km), (2) activity assays over a range of temperatures, (3) protein melting analysis, (4) activity on additional AOPP herbicides substrates, and (5) mass spectrometry analysis on peptides to confirm identity. The biochemical analyses were also done with purified recombinant wild-type protein and MON-HT55 protein for comparison. For the kinetic analysis, a non-endpoint assay was conducted at 23° C. with either quizalofop-P or 2,4-D as substrate. The recombinant proteins for these assays were produced in bacteria and purified using a 6-His tag fused at the C-terminal end of the protein. Results of the kinetic analysis with either quizalofop-P or 2,4-D as substrate are presented for ten of the engineered proteins, wild-type protein, and MON-HT55 protein in Table 7 (standard error is shown in parenthetical). Vmax is expressed as specific activity, umol herbicide product mg enzyme-1 min-1; Km expressed as mM herbicide substrate. […] The differentiation of the protein kinetics for MON-HTI and MON-HT7 were surprising because there are only four amino acid differences between MON-HT1 and MON-HT7. Specifically, MON-HT1 has the following amino acids at the indicated position: 182; F105; T112; and V273, and MON-HT7 has the following amino acids at the indicated position: L82; V105; S112; and A273.
Kinetic analysis using a non-endpoint assay was conducted at 23° C. with either quizalofop-P or 2,4-D as substrate, as detailed above for purified protein of the wild-type enzyme, MON-HT1, MON-HT13, MON-HT15, and MON-HT17.

[2] = assay type: physicochemical; conditions: Table 11 series
Method: A protein melting analysis was also conducted. For the protein melting determinations, purified enzyme was added to 96-well microtiter plates in standard storage buffer (30 mM Tris pH7.5, 150 mM NaCl) with or without 50 uM Fe2+ and 1.0 mM aKG. Protein unfolding was then detected with SYPRO® orange protein gel stain (Invitrogen™ catalog #S6651, Life Technologies, Grand Island, NY) in a BioRad CFX96™ Real time PCR machine (BioRad, Hercules, CA) with readings taken between 10° C. to 95° C. in 0.5° C. steps. […] In contrast, 50 uM Fe2+ and 1.0 mM aKG had little effect on the stability of any of the engineered proteins. MON-HT55, MON-HT3, MON-HT4, MON-HT6, and MON-HT10 had melting temperatures in the range of 41° C. to 48° C., which is below the melting temperature of the wild-type enzyme. MON-HT1, MON-HT2, MON-HT5, MON-HT7, MON-HT8, and MON-HT9 had melting temperatures between 58° C. and 67° C., which is 8° C. to 17° C. higher than the wild-type enzyme. For MON-HT7 and MON-HT1, the difference in melting point was 11° C. in buffer without Fe2+ and aKG and 8° C. in buffer with Fe2+ and aKG. This was surprising since there are only four amino acid differences between the two enzymes.
A protein melting analysis was conducted as detailed above. The melting temperatures of MON-HT13, MON-HT15, and MON-HT17 was similar to the melting temperature of MON-HT1 with T1/2 in buffer in the range of 55-58° C., and with T1/2 in buffer plus Fe2+ and aKG in the range of 60-62° C.

[3] = enzyme activity assay at 23° C. with purified enzyme; assay type: biochemical; conditions: for activity with fluroxypyr as the substrate / activity with triclopyr as the substrate: not robust enough to quantify; for MCPA Km / MCPA Vmax / Mecoprop Km: percentage of wild-type RdpA, set at 100%
Method: The enzyme activity of MON-HT protein variants with triclopyr, fluroxypyr, MCPA, MCPB, mecoprop, as substrates was determined using the enzyme activity assay conducted at 23° C. with purified enzyme. The activity was recorded as the maximum activity as a percentage of the wild-type RdpA enzyme's activity, which was set at 100%. […] The enzymatic activity with mecoprop as a substrate was reduced for each of the MON-HT1, MON-HT13, MON-HT15, and MON-HT17 variants compared to the wild-type RdpA enzyme. An unexpected result was that enzymatic activity with MCPA as a substrate was roughly 6-fold greater for MON-HT1, and approximately 10-fold greater for MON-HT13, MON-HT15, and MON-HT17 compared to the wild-type RdpA enzyme.

[4] = test system: transgenic soybean plants; assay: R0 soybean 2,4-D spray test of 2,4-D optimized variants; assay type: in vivo; conditions: for tolerance to 2,4-D treatment: 2× application rate, soy
Text: An additional five engineered proteins optimized for activity for 2,4-D were then selected for analysis in transgenic soybean. DNA constructs were produced for expressing MON-HT13 (SEQ ID NO:47), MON-HT14 (SEQ ID NO:48), MON-HT15 (SEQ ID NO:49), MON-HT17 (SEQ ID NO:51), and MON-HT18 (SEQ ID NO:52) with codon usage optimized for dicot expression. The operably linked expression elements (promoter, leader, intron, CTP, and 3′UTR) were identical in all of the constructs. Leaf samples were taken from R0 plantlets and single copy plants were identified using a PCR-based assay. When the single-copy R0 plants had approximately two to three trifoliate leaves, they were treated with either 1.5 lb ae/acre (2×) or 3.0 lb ae/acre (4×) of 2,4-D. Seven days after herbicide application, the plants were scored for herbicide injury based on the percent area of the plant showing injury, as indicated above.

[5] = 23° C., read-out: Km Quizalofop
[6] = 2,4-D rate 2X (1.5 lb ae/acre), single copy R0 soy, seven days after application

Molecule	enzymatic activity with quizalofop compared with MON-HT1 [1]	Vmax 2,4-D [1]	Km ([1]; read-out: Km 2,4-D) [µM]	Vmax Quizalofop ([1]; 23° C.)	Km [1, 5] [µM]	Melting temp, Buffer [2] [°C]	Melting temp, Buffer plus Fe2+ and aKG [2] [°C]	activity with MCPB as the substrate [3]	enzymatic activity with MCPA greater compared to the wild-type RdpA enzyme [3]	activity with fluroxypyr as the substrate [3]	activity with triclopyr as the substrate [3]	MCPA Km [3] [%]	MCPA Vmax [3] [%]	Mecoprop Km [3] [%]	Events with 20-50% injury [4, 6]	Events with <20% injury [4, 6]	tolerance to 2,4-D treatment [4]
B1	roughly similar to the activity of MON-HT1	3.38 (0.05) umol herbicide product mg enzyme-1 min-1	80	1.51 (0.05) umol herbicide product mg enzyme-1 min-1	120	57	62	no detectable activity	approximately 10 fold	detectable activity	detectable activity	68	1800	92	1	12	excellent tolerance
B2	roughly similar to the activity of MON-HT1	2.91 (0.04) umol herbicide product mg enzyme-1 min-1	70	1.53 (0.05) umol herbicide product mg enzyme-1 min-1	140	57	61	no detectable activity	approximately 10 fold	detectable activity	detectable activity	62	1400	65	–	12	excellent tolerance
B3	roughly similar to the activity of MON-HT1	3.53 (0.04) umol herbicide product mg enzyme-1 min-1	70	1.52 (0.06) umol herbicide product mg enzyme-1 min-1	120	55	60	no detectable activity	approximately 10 fold	detectable activity	detectable activity	59	1300	57	–	5	excellent tolerance
